The numbers were not newly measured in article PMC3749945, which cites them from elsewhere.

The target of this data set is Cdc42 (Homo sapiens) (UniProt P60953).
UniProt P60953, sequence (P60953 1-188): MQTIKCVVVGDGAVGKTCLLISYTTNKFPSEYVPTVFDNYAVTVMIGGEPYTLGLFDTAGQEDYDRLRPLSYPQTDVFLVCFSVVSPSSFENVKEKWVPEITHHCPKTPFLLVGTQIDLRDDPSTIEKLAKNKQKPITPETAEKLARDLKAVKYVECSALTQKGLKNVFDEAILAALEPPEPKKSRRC

Consider WASP (from UniProt P42768), for which the Kd was 74 nM.

By Kd is commonly meant the concentration at which binding is half-saturated.
